Test results reported in US20130059772A1, “Use of Repeat Sequence Protein Polymers in Personal Care Compositions” (DANISCO US INC., priority 2003, published 2013).

Test system: Fibroblasts (HDFn Cell Line)
Assay: MTT assay (second cell viability assay)
Conditions: 48 hours
Source text: The purple crystals are extracted from the cells with isopropanol and the amount of crystal formation quantified spectrophotometrically. The intensity of the purple color is directly proportional to the metabolic activity of the cultured cells, which normally is used as an indication of an increase in the number of viable cells, although it can also indicate an increase in the mitochondrial content of the existing cells (Alley et al., Cancer Res., 48:589-601 1988). A decrease in color intensity can be a sign of toxicity.
Fibroblasts (Cascade Biologics, HDFn Cell Line, lot#1C0914) were seeded into the individual wells of either a 96-well plate (for the initial pilot work to determine concentration effects on cell viability) in 100 μl of Fibroblast Growth Media (FGM) or in 12-well plates (for the measurement of collagen, elastin and MMP-1) in 1.0 ml of FGM and incubated overnight at 37±2° C. and 5±1% CO2. On the following day, the medium was removed via aspiration to eliminate any non-adherent cells and replaced with fresh FGM. The cells were grown until confluent, with a media change every 48 to 72 hours. Upon reaching confluency, the cells were treated for 24 hours with Dulbecco's Modified Essential Media (DMEM) supplemented with 1.5% FBS to wash out any effects from the growth factors included in the normal FGM. After this 24-hour wash out period, the cells were treated with the test materials at the specified concentrations dissolved in DMEM with 1.5% FBS. […]
After the 2-day incubation, the cell culture medium was removed and the fibroblasts were washed twice with PBS to remove any remaining test material. […] The 96-well plates were read at 540 nm using isopropyl alcohol as a blank. The mean MTT absorbance value for the negative control cells was calculated and used to represent 100% value for cell viability. The individual MTT values from the cells undergoing the various treatments were then divided by the mean value for the negative control cells and expressed as a percent, to determine the change in cell viability caused by each treatment.

B1: GC2596-26-D: SELP47K modified with two units of ALSYP (SEQ ID NO:36) peptides in each SELP47K unit; SEQ ID NO:32 (Example 4) (protein)
chain: MDPVVLQRRDWENPGVTQLNRLAAHPPFASDPMGAGAGSGAGAGSALSYPGVGVPGVGVPGVGVPGVGVPGKGVPGVGVPGVGVPGVGVPALSYPGAGAGSGAGAGSGAGAGSGAGAGSALSYPGVGVPGVGVPGVGVPGVGVPGKGVPGVGVPGVGVPGVGVPALSYPGAGAGSGAGAGSGAGAGSGAGAGSALSYPGVGVPGVGVPGVGVPGVGVPGKGVPGVGVPGVGVPGVGVPALSYPGAGAGSGAGAGSGAGAGSGAGAGSALSYPGVGVPGVGVPGVGVPGVGVPGKGVPGVGVPGVGVPGVGVPALSYPGAGAGSGAGAGSGAGAGSGAGAGSALSYPGVGVPGVGVPGVGVPGVGVPGKGVPGVGVPGVGVPGVGVPALSYPGAGAGSGAGAGSGAGAGSGAGAGSALSYPGVGVPGVGVPGVGVPGVGVPGKGVPGVGVPGVGVPGVGVPALSYPGAGAGSGAGAGSGAGAGSGAGAGSALSYPGVGVPGVGVPGVGVPGVGVPGKGVPGVGVPGVGVPGVGVPALSYPGAGAGSGAGAGSGAGAGSGAGAGSALSYPGVGVPGVGVPGVGVPGVGVPGKGVPGVGVPGVGVPGVGVPALSYPGAGAGSGAGAGSGAGAGSGAGAGSALSYPGVGVPGVGVPGVGVPGVGVPGKGVPGVGVPGVGVPGVGVPALSYPGAGAGSGAGAGSGAGAGSGAGAGSALSYPGVGVPGVGVPGVGVPGVGVPGKGVPGVGVPGVGVPGVGVPALSYPGAGAGSGAGAGSGAGAGSGAGAGSALSYPGVGVPGVGVPGVGVPGVGVPGKGVPGVGVPGVGVPGVGVPALSYPGAGAGSGAGAGSGAGAGSGAGAGSALSYPGVGVPGVGVPGVGVPGVGVPGKGVPGVGVPGVGVPGVGVPALSYPGAGAGSGAGAGSGAGAGSGAGAGSALSYPGVGVPGVGVPGVGVPGVGVPGKGVPGVGVPGVGVPGVGVPALSYPGAGAGSGAGAGSGAGAMDPGRYQDLRSHHHHHH
modifications: SELP 47K-P4
Percent Viability (0.0014%): 100 ± 3% | Percent Viability (0.007%): 103 ± 2% | Percent Viability (0.014%): 106 ± 5%
